Experimental data as given in publication doi:10.1101/2025.08.04.25332941.

Tests used:
[1] = biological target: HLA-A*24 with C-terminal His tag (A*24-His Tg) (human); assay: SPR
[2] = biological target: HLA-A*33 with C-terminal His tag (A*33-His Tg) (human); assay: SPR

Substance “Toxoplasma antigenic peptide SAG2C, wild type” has an SPR response at 200 µM [1] of 15 RU and an SPR response at 200 µM [2] of 150 RU.
